Test results: publication PMC6663954

Target: RsPGs (polygalacturonases from Rhizoctonia solani) (Rhizoctonia solani)

OsPGIP2^L233F, recombinant His-tagged (natural protein)
reduction of RsPG activity, reduced sugar assay (polygalacturonic acid, 50 mM sodium citrate pH 5.0, 37 °C, 1 h): 40.6%
